Assay results as given in patent US20210163590A1 (WUXI BIOLOGICS IRELAND, published 2021).
Values belong to the binder of their own block, whether it stands above or below them.

What was measured:
[1] = biological target: T1, human TIM-1 (human, UniProt Q96D42 21-290, limits assumed); assay: ELISA on plate-coated human TIM-1
T1 sequence (looked up): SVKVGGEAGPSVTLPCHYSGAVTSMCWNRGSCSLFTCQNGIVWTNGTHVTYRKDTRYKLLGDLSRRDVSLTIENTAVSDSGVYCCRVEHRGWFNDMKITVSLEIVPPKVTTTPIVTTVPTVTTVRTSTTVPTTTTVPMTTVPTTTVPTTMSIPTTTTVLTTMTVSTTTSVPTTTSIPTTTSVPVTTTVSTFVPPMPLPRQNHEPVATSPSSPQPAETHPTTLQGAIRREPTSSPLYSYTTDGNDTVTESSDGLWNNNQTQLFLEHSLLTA
Text: (§1) The binding of the antibodies to the plates was detected by corresponding HRP-conjugated 2nd antibodies (see FIGS. 3A-3C).

[2] = biological target: T2, human TIM-4 (human, UniProt Q96H15 25-314, limits assumed); assay: ELISA on plate-coated human TIM-4
T2 sequence (looked up): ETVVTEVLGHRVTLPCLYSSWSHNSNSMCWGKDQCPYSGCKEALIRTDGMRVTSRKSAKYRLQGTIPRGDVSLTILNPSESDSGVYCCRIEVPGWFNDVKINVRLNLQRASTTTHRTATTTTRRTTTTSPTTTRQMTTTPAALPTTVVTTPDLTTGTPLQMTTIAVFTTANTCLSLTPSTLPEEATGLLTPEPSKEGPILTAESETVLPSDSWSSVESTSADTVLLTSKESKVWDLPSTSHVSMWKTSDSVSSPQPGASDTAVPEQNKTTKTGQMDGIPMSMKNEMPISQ
Text: as §1

[3] = biological target: T3, cynomolgus monkey TIM-3 on the cell surface (cynomolgus monkey, UniProt A0A2K5U3G7 22-294); assay: flow cytometry on cyno TIM-3-expressing transfectant cells
T3 construct: whole, on cells; also called cyno TIM-3-expressing transfectant cells
T3 sequence: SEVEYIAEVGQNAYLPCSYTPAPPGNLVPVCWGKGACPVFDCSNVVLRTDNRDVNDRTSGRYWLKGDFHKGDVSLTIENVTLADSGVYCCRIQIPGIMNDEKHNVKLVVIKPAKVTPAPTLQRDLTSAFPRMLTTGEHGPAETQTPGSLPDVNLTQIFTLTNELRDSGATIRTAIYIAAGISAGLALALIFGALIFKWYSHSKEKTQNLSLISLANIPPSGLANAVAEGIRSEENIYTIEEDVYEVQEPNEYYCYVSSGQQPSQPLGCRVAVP
Experimental: Cross species binding (FACS): the binding of TIM-3 antibodies to cynomolgus monkey TIM-3 was determined by FACS. […] MFI of the cells was measured by a flow cytometer and analyzed by FlowJo.

[4] = biological target: T4, W340-cynoPro1.ECD.Fc (cynomolgus monkey, UniProt A0A2K5U3G7 22-195); assay: SPR (Biacore 8K); cyno TIM-3 ECD on CM5 chip, antibody as analyte, 1:1 fit
T4 construct: extracellular domain; also called cynomolgus monkey TIM-3.ECD protein; not shown: C-terminal Fc tag
T4 sequence: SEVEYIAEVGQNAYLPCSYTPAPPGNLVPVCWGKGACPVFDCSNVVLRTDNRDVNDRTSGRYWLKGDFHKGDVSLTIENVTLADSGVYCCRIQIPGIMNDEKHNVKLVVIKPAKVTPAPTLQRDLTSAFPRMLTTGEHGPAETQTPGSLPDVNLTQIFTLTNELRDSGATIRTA

[5] = biological target: T5, hTIM-3.ECD.his (human, UniProt Q8TDQ0 22-202); assay: SPR, full kinetics
T5 construct: extracellular domain; also called W340-hPro1.ECD.His; human TIM-3 (SPR analyte); not shown: C-terminal His tag

[6] = biological target: T5, hTIM-3.ECD.his; assay: SPR Koff ranking; antibody captured on anti-human IgG GLM chip, analyte W340-hPro1.ECD.His
Experimental: 3.4 Koff Ranking: the humanized variants, the parental chimeric antibody, as well as negative control were injected to the sensor chip (GLM), which was pre-coated with anti-human IgG.

binding result [1]: no binding (tested: 66.7 nM)
binding result [2]: no binding (tested: 66.7 nM)
EC50 [3]: 0.32 nM
Kd [4]: 0.0209 nM
B1: W3402-2.131.17-z3 (antibody, IgG4, V domains shown)
VH: QVQLQESGPGLVKPSETLSLTCTVSGFSLTNYGVGWIRQPPGKGLEWIGIMTSGGSTYYNSALRARVTINRDTSKNQFSLKLSSVTAADTAVYYCTRDGTTVETLFDYWGQGTMVTVSS
VL: DIVMTQTPLSLSVTPGQPASISCRSSQSLSDSAGITYLYWYLQKPGQSPQLLIYLASNLGSGVPDRFSGSGSGTDFTLKISRVEAEDVGVYYCMQGIHVPLTFGQGTKLEIK
notes: Humanized monoclonal antibody with a kappa light chain; also called W3402-z3; humanized variant W3402-z3

Kd [5]: 0.00937 nM
koff [5]: 2.12e-05 s⁻¹
kon [5]: 2.26e+06 M⁻¹ s⁻¹
koff [6]: 1.95e-06 s⁻¹
B2: chimeric W3402-x (antibody, human IgG4, V domains shown)
VH: QVQLKESGPGLVQSSQTLSLTCTVSGFSLTNYGVGWIRQPPGKGLEWIAIMTSGGSTYYNSALRARLNINRDTSKSQVFLEVNSLHTEDTATYFCTRDGTTVETLFDYWGQGLMVTVSS
VL: DVVLTQTPSTLSAIIGQSVSISCRSSQSLSDSAGITYLYWYLQRPGQSPQLLIYLASNLGSGVPNRFSGSGSGTDFTLKISGVEPEDLGVYHCMQGIHVPLTFGSGTKLEIK
notes: also called parental chimeric W3402-x; Parental xAb
